Results: the MegaScale stability set (Tsuboyama et al. 2023)

B1: HEEH_KT_rd6_3546 (parent)
chain: SEEDKEREHWERLNRDFELRVLDTTFIAHHAEEVIKLLRWLEK
B2: EEHEE_rd4_0469 (parent)
chain: ITIHVNGVTYHFDNPEEAEKFAQKMAKTYQLKMEIHNGEFHME

Variants of: B1
Assay: folding stability dG (cDNA display proteolysis); higher = more stable
Settings: PBS, room temperature

Folding stability dG [kcal/mol] of substitutions, site by site:
R39: P 0.359; A 0.866; I 1.77; H 1.17; W 1.55; M 1.21; Y 1.54; V 1.33; D 0.762; G 0.742; Q 0.982; S 1.01; T 1.37; N 0.829; K 1.28; L 1.59; F 1.7; E 0.969
L37: D -0.437; S 0.285; G 0.136; K 0.138; Y 1.23; R 0.273; N 0.031; F 1.62; E -0.07; P -0.172; T 0.61; Q 0.133; M 1.09; W 1.63; H 0.36; I 1.23; V 0.922
L41: P 0.119; Q 0.519; M 1.22; D -0.253; E -0.48; I 1.14; F 1.38; K 0.491; T 0.442; G 0.088; Y 0.761; H 0.356; W 1.22; N -0.295; V 1.21; S -0.005; A 0.58; R 0.586; C 1.83
K43: E 1.3; N 1.3; V 1.56; H 1.17; L 1.36; C 1.57; Q 1.36; M 1.5; R 1.65; I 1.38; F 1.57; G 1.82; A 1.27; D 1.45; S 1.2; W 2.03; Y 1.8; T 1.22; P 0.967
L38: K 0.405; G -0.072; D -0.361; A 0.316; V 0.9; Y 0.971; C 1.78; W 1.61; S 0.079; N 0.045; E -0.1; F 1.39; Q 0.257; T 0.188; R 0.8; H 0.371; M 0.931; I 1.09; P -0.432
E42: I 2.41; P 0.291; L 2.42; F 2.75; M 2.4; R 1.85; S 1.84; G 1.7; K 1.69; Q 1.67; D 1.07; W 2.59; N 1.56; H 1.63; A 1.82; T 2.1; V 2.26; Y 2.57
W40: P -0.109; M 1.11; K 0.6; V 0.885; D 0.502; C 1.55; L 1.01; T 0.373; G 0.388; R 0.934; E 0.585; S 0.639; A 0.156; Y 1.13; N 0.617; H 0.768; Q 0.781; I 1.31; F 1.1

Variants of: B2
Assay: as above
Settings: PBS, room temperature

Folding stability dG [kcal/mol]: each site, then its substitutions
H11: A 1.02; I 1.04; T 1.07; Y 1.18; G 0.636; N 0.977; S 1.05; P 0.279; K 1.12; V 1.07; Q 1.01; F 1.17; L 1.02; R 1.13; W 1.24; D 0.692; M 1.03; E 0.843
I3: W 0.819; M 0.706; F 0.925; L 0.868; T 0.127; Q -0.059; H 0.159; E -0.263; R 0.201; S -0.094; D 0.068; G 0.58; Y 0.837; V 1.35; P -0.854; N -0.377; K 0.19; C 1.55; A 0.525
I1: M 0.992; T 0.826; W 1.32; F 1.08; L 0.959; C 1.65; A 0.749; Q 0.734; N 0.57; S 0.683; K 0.846; P 0.64; D 0.302; G 0.443; H 0.725; R 1.01; E 0.225; Y 1.16; V 1.02
T9: P 1.51; L 1.15; A 1.39; K 1.51; S 1.17; R 1.4; C 1.86; E 0.827; Y 0.832; I 1.19; G 1.11; H 1.11; Q 1.27; V 1.25; F 0.925; N 0.826; M 1.21; D 0.639; W 0.84
V8: F 1.36; E 1.09; S 1.09; G 0.858; Q 1.06; I 1.13; T 1.12; A 1.11; K 1.38; W 1.47; N 1.12; Y 1.29; H 1.11; D 1.01; R 1.43; M 1.18; L 1.19
H4: M 0.82; I 0.994; W 1.35; N 0.813; P 0.265; A 0.76; V 0.899; G 0.633; Y 1.29; F 1.08; E 0.692; R 1.08; L 0.939; D 0.586; K 0.918; T 0.943; C 1.77; S 0.684; Q 0.774
F12: C 1.07; G -0.935; A -0.214; H -0.29
T2: D 1.13; W 1.47; P 0.663; S 1.08; G 0.665; C 1.72; E 0.797; N 1.17; A 0.989; I 1.24; H 1.51; V 1.13; M 1.01; R 1.46; L 1.25; F 1.42; Y 1.36; K 1.31; Q 0.972
V5: F 1.24; H 0.711; I 1.14; E 0.203; A 0.938; L 0.899; P -0.199; M 0.927; G 0.398; Y 0.92; N 0.312; R 0.306; D 0.38; Q 0.252; C 1.77; W 1.2; K 0.112; T 0.534; S 0.42
N6: S 1.07; F 2.18; Q 1.26; M 1.73; P 0.4; V 1.42; T 1; K 1.37; E 1.2; I 1.51; H 1.35; R 1.27; L 1.79; Y 1.73; W 1.88; G 1.14; D 1.11; A 1.3
Y10: E -0.243; A 0.111; T 0.067; N -0.261; I 0.806; K 0.307; Q -0.14; V 0.557; W 1.07; L 0.756; F 1.19; H 0.792; R 0.338; C 1.52; S -0.597; M 0.573
G7: H 1.13; N 1.07; Q 0.959; I 2.4; L 1.33; A 0.95; E 0.803; K 1; V 1.83; Y 1.26; D 0.859; P -0.022; T 0.96; W 1.43; M 1.22; S 1.07; F 1.65; R 1.04
